Molecular target: the molecule itself
Assay: SDS-PAGE of unboiled samples

B1: unencapsulated (naked) DypB (Rv0799c) purified from E. coli (enzyme)
chain: MAVPAVSPQPILAPLTPAAIFLVATIGADGEATVHDALSKISGLVRAIGFRDPTKHLSVVVSIGSDAWDRLFAGPRPTELHPFVELTGPRHTAPATPGDLLFHIRAETMDVCFELAGRILKSMGDAVTVVDEVHGFRFFDNRDLLGFVDGTENPSGPIAIKATTIGDEDRNFAGSCYVHVQKYVHDMASWESLSVTEQERVIGRTKLDDIELDDNAKPANSHVALNVITDDDGTERKIVRHNMPFGEVGKGEYGTYFIGYSRTPTVTEQMLRNMFLGDPAGNTDRVLDFSTAVTGGLFFSPTIDFLDHPPPLPQAATPTLAAGSLSIGSLKGSPR
Q: For B1, which “stoichiometry N” value is on record?
A: Its value is 4.
